Measurements from patent publication EP4682166A1 (Guangzhou Enmai Biotechnology Co., Ltd, dated 2026).

T1: human NMI (N-myc Interacting protein), recombinant protein (human, UniProt Q13287 1-307, limits assumed)
T1 construct: Gene ID: 9111; also called hNMI; antigen
T1 sequence (looked up): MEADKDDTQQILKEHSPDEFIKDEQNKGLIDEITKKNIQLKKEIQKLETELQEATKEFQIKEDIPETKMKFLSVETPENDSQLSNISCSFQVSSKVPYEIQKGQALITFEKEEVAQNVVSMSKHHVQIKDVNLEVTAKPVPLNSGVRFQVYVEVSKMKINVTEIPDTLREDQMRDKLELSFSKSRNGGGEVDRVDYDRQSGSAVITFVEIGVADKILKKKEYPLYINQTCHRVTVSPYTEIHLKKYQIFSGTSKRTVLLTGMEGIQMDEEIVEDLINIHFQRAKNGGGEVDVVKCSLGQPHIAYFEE


Columns and labels:
[1] = target: T1, human NMI (N-myc Interacting protein), …; test: ELISA EC50 against parent B-8
[2] = target: T1, human NMI (N-myc Interacting protein), …; test: ELISA, binding to hNMI
[3] = target: T1, human NMI (N-myc Interacting protein), …; test: ELISA, binding to hNMI; remark: listed apart in the source
[4] = target: T1, human NMI (N-myc Interacting protein), …; test: indirect ELISA, coated hNMI
[5] = target: T1, human NMI (N-myc Interacting protein), …; test: sandwich ELISA; detection 94C4-1-biotin 1µg/mL; hNMI 48.828 pg/mL
[6] = target: T1, human NMI (N-myc Interacting protein), …; test: sandwich ELISA; detection 94C4-1-biotin 1µg/mL; hNMI 97.656 pg/mL
[7] = target: T1, human NMI (N-myc Interacting protein), …; test: sandwich ELISA; detection 94C4-1-biotin 1µg/mL; hNMI 195.313 pg/mL
[8] = target: T1, human NMI (N-myc Interacting protein), …; test: sandwich ELISA; detection 94C4-1-biotin 1µg/mL; hNMI 390.625 pg/mL
[9] = target: T1, human NMI (N-myc Interacting protein), …; test: sandwich ELISA; detection 94C4-1-biotin 1µg/mL; hNMI 781.250 pg/mL
[10] = target: T1, human NMI (N-myc Interacting protein), …; test: sandwich ELISA; detection 94C4-1-biotin 0.5µg/mL; hNMI 48.828 pg/mL
[11] = target: T1, human NMI (N-myc Interacting protein), …; test: sandwich ELISA; detection 94C4-1-biotin 0.5µg/mL; hNMI 97.656 pg/mL
[12] = target: T1, human NMI (N-myc Interacting protein), …; test: sandwich ELISA; detection 94C4-1-biotin 0.5µg/mL; hNMI 195.313 pg/mL
[13] = target: T1, human NMI (N-myc Interacting protein), …; test: sandwich ELISA; detection 94C4-1-biotin 0.5µg/mL; hNMI 390.625 pg/mL
[14] = target: T1, human NMI (N-myc Interacting protein), …; test: sandwich ELISA; detection 94C4-1-biotin 0.5µg/mL; hNMI 781.250 pg/mL
[15] = target: T1, human NMI (N-myc Interacting protein), …; test: sandwich ELISA; detection 94C4-1-biotin 1µg/mL; hNMI 1,562.500 pg/mL
[16] = target: T1, human NMI (N-myc Interacting protein), …; test: sandwich ELISA; detection 94C4-1-biotin 1µg/mL; hNMI 3,125.000 pg/mL
[17] = target: T1, human NMI (N-myc Interacting protein), …; test: sandwich ELISA; detection 94C4-1-biotin 1µg/mL; hNMI 6,250.000 pg/mL
[18] = target: T1, human NMI (N-myc Interacting protein), …; test: sandwich ELISA; detection 94C4-1-biotin 1µg/mL; hNMI 12,500.000 pg/mL
[19] = target: T1, human NMI (N-myc Interacting protein), …; test: sandwich ELISA; detection 94C4-1-biotin 1µg/mL; hNMI 25,000.000 pg/mL
[20] = target: T1, human NMI (N-myc Interacting protein), …; test: sandwich ELISA; detection 94C4-1-biotin 1µg/mL; hNMI 50,000.000 pg/mL
[21] = target: T1, human NMI (N-myc Interacting protein), …; test: sandwich ELISA; detection 94C4-1-biotin 0.5µg/mL; hNMI 1,562.500 pg/mL
[22] = target: T1, human NMI (N-myc Interacting protein), …; test: sandwich ELISA; detection 94C4-1-biotin 0.5µg/mL; hNMI 3,125.000 pg/mL
[23] = target: T1, human NMI (N-myc Interacting protein), …; test: sandwich ELISA; detection 94C4-1-biotin 0.5µg/mL; hNMI 6,250.000 pg/mL
[24] = target: T1, human NMI (N-myc Interacting protein), …; test: sandwich ELISA; detection 94C4-1-biotin 0.5µg/mL; hNMI 12,500.000 pg/mL
[25] = target: T1, human NMI (N-myc Interacting protein), …; test: sandwich ELISA; detection 94C4-1-biotin 0.5µg/mL; hNMI 25,000.000 pg/mL
[26] = target: T1, human NMI (N-myc Interacting protein), …; test: sandwich ELISA; detection 94C4-1-biotin 0.5µg/mL; hNMI 50,000.000 pg/mL

Fold decrease in affinity [1] [fold]	EC50 [4] [µg/mL]	OD450 [5] [OD450]	OD450 [6] [OD450]	OD450 [7] [OD450]	OD450 [8] [OD450]	OD450 [9] [OD450]	OD450 [10] [OD450]	OD450 [11] [OD450]	OD450 [12] [OD450]	OD450 [13] [OD450]	OD450 [14] [OD450]	OD450 [15] [OD450]	OD450 [16] [OD450]	OD450 [17] [OD450]	OD450 [18] [OD450]	OD450 [19] [OD450]	OD450 [20] [OD450]	OD450 [21] [OD450]	OD450 [22] [OD450]	other results	Binder
> 500																					B-8 mutant S101Y (VH) (antibody, V domains shown) VH: QSLEESGGDLVKPGASLTLTCTASGFSFSSSYYMCWVRQAPGKGLEWIACIYAGSSGSTYYASWAKGRFTISKTSSTTVTLQMTSLTAADTATYFCAREYYYDDYGDFWGFNLWGPGTLVTVSS VL: ALVMTQTPSSVSAAVGGTVTINCQASQNIYTNLAWYQQKPGQPPKLLIYGASNLESGVPSRFKGSGSGTEYTLTISDLECDDAATYYCQSSLYSRIADRANAFGGGTEVVVK
> 100																					B-8 mutant T31V (VL) (antibody, V domains shown) VH: QSLEESGGDLVKPGASLTLTCTASGFSFSSSYYMCWVRQAPGKGLEWIACIYAGSSGSTYYASWAKGRFTISKTSSTTVTLQMTSLTAADTATYFCAREYSYDDYGDFWGFNLWGPGTLVTVSS VL: ALVMTQTPSSVSAAVGGTVTINCQASQNIYVNLAWYQQKPGQPPKLLIYGASNLESGVPSRFKGSGSGTEYTLTISDLECDDAATYYCQSSLYSRIADRANAFGGGTEVVVK
	0.071	0.134	0.149	0.179	0.233	0.341	0.108	0.126	0.159	0.219	0.377	0.525	0.903	1.53	2.31	2.74	3.04	0.596	0.958	EC50 [2]: 0.031 µg/mL; EC50 [3]: 0.165 nM; OD450 [23]: 1.6 OD450; OD450 [24]: 2.44 OD450; OD450 [25]: 2.87 OD450; OD450 [26]: 3.25 OD450	monoclonal antibody 98G10 (antibody, V domains shown, Rabbit monoclonal antibody) VH: QEQLEESGGDLVKPEGSLTLTCTASGFSFSASYWICWVRQAPGKGLEWIACIYGGSSGSAYYASWAKGRFTISKTSSTTVTLQMTSLTAADTATYFCARAGYYNYGSAGDIYPSSFKLWGPGTLVTVSS VL: DIVMTQTPASVEAAVGGTVTINCQASQSISTALAWYQQKPGQPPKLLIYTASKVASGVPSRFSGSGSGTQFTLTISDLECADAATYYCQNYYYSSSSITFGGGTEVVVK
	0.0535	0.145	0.169	0.207	0.251	0.381	0.13	0.143	0.179	0.25	0.387	0.547	0.932	1.52	2.15	2.75	3.1	0.593	0.96	OD450 [23]: 1.56 OD450; OD450 [24]: 2.3 OD450; OD450 [25]: 2.75 OD450; OD450 [26]: 3.16 OD450	monoclonal antibody 39B4 (antibody, V domains shown, Rabbit monoclonal antibody; also called 39B4-1) VH: QEQLVESGGGLVQPEGSLTLTCTASGFSFSSSYWICWVRQAPGKGLEWIACIYAGTSGSTYYASWAKGRFTISKTSSTTVDLQMNSLTAADTATYFCARAGYYTYGAGVYIYPSSFKLWGPGTLVTVSS VL: DVVMTQTPASVEAAVGGTVTIKCQASESIGNALAWYQQKPGQPPKLLIYSASNLASGVPSRFSGSGSGTQFTLTISDLECADAATYYCQSYYYSSSSITFGGGTEVVVK
